Experimental data from the nanobody polyreactivity screen of Harvey et al. (2022).

Assay: yeast display, Sf9 membrane polyspecificity reagent, FACS + sequencing; frameworks hold sequencing errors
Summary of the method: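 Nanobodies came from a synthetic yeast display library in Saccharomyces cerevisiae BJ5465, induced with galactose for 36–48 hours and stained for 1 hour at 4 °C with 10% biotinylated, detergent-solubilized Sf9 membrane reagent. Cells were enriched on streptavidin microbeads and then FACS-sorted, with low and high (top ~1%) gates set on anti-HA fluorescence for expression and streptavidin fluorescence for reagent binding. Each polyreactivity label reflects the gate a clone came from. Genes were amplified by colony PCR, sequenced by MiSeq 2 × 250 and filtered by CDR length.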

Row | Sequence | polyreactivity (PSR sort gate)
1 | QVQLVESGGGLVQAGGSLRLSCAASGIIFSYYDMGRYRQAPGKERELVATITGNGGSTYYADSVKGRFTISRDNAKNTVYLQMNSLKPEDTAVYYCAAQTTVYIYDYWGQGTQVTVSS | low polyreactivity
2 | QVQLVESGGGLVQAGGSLRLSCAASGIIFSYYTMGWYRQEPGKEREVVAAISARGGRTYYADSVKGRFTISRDNAKNTVYLQMNSLKPEDTAVYYCAASWSTEYYWGQGTQVTVSS | high polyreactivity
3 | QVQLVESGGGLVQAGGSLRLSCAASGIIFTDNAMGWYRQAPGKERELVATISWSTDNTYYADSVKGRFTISRDNAKNTVYLQMNSLKPEDTAVYYCAAEEYYAYWYQYDYWGQATQVTVSS | low polyreactivity
4 | QVQLVESGGGLVQAGGSLRLSCAASGIIFTDYAMGWYRQAPGIERELVAAISGSGGSTYYADSVKGRFTISRDNAKNTVYLQMNSLKPEDTAVYYCAAATHIFLQVYYAYGYWGQGTQVTVSS | high polyreactivity
5 | QVQLVESGGGLVQAGGSLRLSCAASGIIFTFYAMGWYRQAPGKERELVAAISYSSGSTYADSVKGRFTISRDNAKNTVYLQMNSLKPDDTAVYYCAVDLFPGHSYTYDYWGQGTQVTVSS | low polyreactivity
6 | QVQLVESGGGLVQAGGSLRLSCAASGIIFTGNAMGWYIQAPGKERELVAAITSGDTTNYADSVKGRFTISRDNAKNTVYLQMNSLKPEDTAVYYCAKELQVRQAGDYWGQGTQVTVSS | low polyreactivity
7 | QVQLVESGGGLVQAGGSLRLSCAASGIIFTGNAMGWYRQAPGKERELVAAITSGDTTNYADSVKGRFTISRDNAKNTVYLQMNSLKPEDTAVYFCAIELQVRQAGDYWGQGTQVTVSS | low polyreactivity
8 | QVQLVESGGGLVQAGGSLRLSCAASGIIFTQYAMGLYRQAPGKERELVAAISGSGGRTYYADSVKGRFTISRDIAKNTVYLQMNSLKPEDTAVYYCAARYARYGNDYWGQGTQVTVSS | high polyreactivity
9 | QVQLVESGGGLVQAGGSLRLSCAASGIIFTRNAMGWYRPAPGKERELVAASSRSGGSTYYADSVKGRFTISRDNAKNTVYLQMNSLKPEDTAVYDGAAAWSEYPYDYWGQGTQVTVSS | low polyreactivity
10 | QVQLVESGGGLVQAGGSLRLSCAASGIIFTRYAMGWYRQAPGKERELVAAITRNGVSTYYADSVKGRFTISRDNAKNSVYLQMNSLKPEDTAVYYCNTYVLRRYAYGYWGQGTQVTVSS | high polyreactivity
11 | QVQLVESGGGLVQAGGSLRLSCAASGIIFTRYVMGWYRQAPGKERELVATIRIGGSTTYADSVKGRFTISRDNAKNTVYLQMNSLKPEDTAVYYCAADTWYITTYGGAGSYAYGFYYWGQGTQVTVSS | low polyreactivity
12 | QVQLVESGGGLVQAGGSLRLSCAASGIIFTSNTMGWYRPAPGKEREFVASINWNGSSTYADSVKGRFTISRDNAKNTVYLQMYSLKPDDTAVYYCNADSNRNSVQFSLYDYWGQGTQVTVSS | low polyreactivity
13 | QVQLVESGGGLVQAGGSLRLSCAASGIIFTSYAMGWYRQAPGKERELVAVITGTGGITYYADSVKGRFTISRDNAKNTVYLQMNSLKPEDTAVYYCAAELELREYDYWGQGTQVTVSS | high polyreactivity
14 | QVQLVESGGGLVQAGGSLRLSCAASGIIFTTNAMGWYRQAPGKERELVATITSGGGTYYADSVKGRFTISRDNAKNTVYLQMNSLKPVDTAVYYCAATPGWGPWIFDHSYVDFDYWGQGTQVTVSS | low polyreactivity
15 | QVQLVESGGGLVQAGGSLRLSCAASGIIFTWYAMGWYRQAPGKERELVAAITSGNTYYADSVKGRFTISRDNAKNTVYLQMNSLKPEDTAVYYCNAVYSYTDEYDYWGQGTQVTVSS | high polyreactivity
16 | QVQLVESGGGLVQAGGSLRLSCAASGIIFTYNAMGWSRQAPGKERELVAAISWRGGSTYYADSVKGRFTISRDNAKNTVYLQMNSLKPEDTAVYYCARYGTDHRLGYGYWGQGTQVTVSS | low polyreactivity
17 | QVQLVESGGGLVQAGGSLRLSCAASGIIFTYNTMGWYRQAPGKERELVAAINYSGGSTYYADSVKGRFTISRDNAKNTVYLQMNSLKPEDTAVYYCAAPYRRKARGFQQSFDYWGQVTQVTVSS | high polyreactivity
